Assays:
[1] = molecular target: T1, full-length human PD-1 on the cell surface (human, UniProt Q15116 25-288); assay: hybridoma screening, flow cytometry on PD-1 CHO-K1 cells (Example 1)
T1 construct: whole, on cells; also called PD-1 CHO cells; CHO-K1 cells stably expressing full length human PD-1
Description: Hybridoma supernatants from ten 96-well plates were screened for binding to a CHO-K1 cell clone stably transfected with a nucleic acid sequence encoding full length human PD-1 and compared to binding to untransfected CHO-K1 cells. Specifically, hybridoma supernatants were diluted 1:1 with PBS/2% FBS and incubated with an equal volume of PD-1 CHO-K1 cells (2.5×10⁵ cells in PBS, 2% FBS) for 30 minutes at 4° C. Cells were centrifuged, washed once with PBS/1% FBS, and incubated with APC-conjugated goat anti-mouse IgG (H+L) (Southern Biotechnology, Birmingham, Ala.) for 30 minutes at 4° C. […] Mouse IgG levels were quantified by ELISA.

[2] = molecular target: T1, full-length human PD-1 on the cell …; assay: binding to PD-1 antigens as in Example 1 (format not restated)
[3] = molecular target: T1, full-length human PD-1 on the cell …; assay: cell-based or functional assay
[4] = molecular target: T2, monomeric soluble human PD1-Avi-His (human, UniProt Q15116 25-170); assay: SPR (BIACORE T200), antibody captured on anti-human IgG, monomeric PD1-Avi-His flowed, 1:1 fit
T2 construct: extracellular domain; not shown: Avi tag and His tag at the C-terminus
T2 sequence (Q15116 25-170): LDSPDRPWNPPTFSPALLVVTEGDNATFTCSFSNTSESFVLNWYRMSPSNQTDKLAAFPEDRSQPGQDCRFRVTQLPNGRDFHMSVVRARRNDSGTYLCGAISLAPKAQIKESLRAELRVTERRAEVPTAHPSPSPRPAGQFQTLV
Description: SPR analyses were carried out using a BIACORE™ T200 instrument, and kinetic constants were determined using the BIACORE™ T200 evaluation software. Experimental parameters were chosen to ensure that saturation would be reached at the highest antigen concentrations and that Rmax values would be kept under 30 RU. GE anti-Human IgG (Fc-specific, approximately 7,000 RU) was immobilized on a BIACORETM CM5 chip using EDC-activated amine coupling chemistry. Antibodies (0.5 μg/mL, 60 second capture time) were then captured using this surface. Next, monomeric soluble human PD1-Avi-His was flowed over captured antibody (300 second association, 300 second dissociation) using a three-fold serial dilution series from 500 nM to 2 nM. Captured antibody and antigen were removed between each cycle using 3 M MgCl₂ (60 second contact time) in order to ensure a fresh binding surface for each concentration of antigen. The resulting sensorgrams were fit globally using a 1:1 binding model in order to calculate on- and off-rates (kₐ and kd, respectively), as well as affinities (KD).

[5] = molecular target: T2, monomeric soluble human PD1-Avi-His; assay: KINEXA 3000 solution-based affinity, PD1-Avi-His titrated against constant antibody
Description: Solution-based affinity analyses were carried out using a KINEXA™ 3000 assay (Sapidyne Instruments, Boise, Idaho), and results were analyzed using KINEXA™ Pro Software 3.2.6. Experimental parameters were selected to reach a maximum signal with antibody alone between 0.8 and 1.2 V, while limiting nonspecific binding signal with buffer alone to less than 10% of the maximum signal. Azlactone beads (50 mg) were coated with antigen by diluting in a solution of PD-1-Avi-His (50 μg/mL in 1 mL) in 50 mM Na₂CO₃. The solution was rotated at room temperature for 2 hours, and beads were pelleted in a picofuge and washed twice with blocking solution (10 mg/mL BSA, 1 M Tris-HCl, pH 8.0). Beads were resuspended in blocking solution (1 mL), rotated at room temperature for 1 hour, and diluted in 25 volumes PBS/0.02% NaN3. […] All samples were diluted in PBS, 0.2% NaN₃, 1 mg/mL BSA and allowed to equilibrate at room temperature for 30 hours. Additionally, samples containing only antibody and only buffer were tested in order to determine maximum signal and nonspecific binding signal, respectively.

T1 sequence (Q15116 25-288): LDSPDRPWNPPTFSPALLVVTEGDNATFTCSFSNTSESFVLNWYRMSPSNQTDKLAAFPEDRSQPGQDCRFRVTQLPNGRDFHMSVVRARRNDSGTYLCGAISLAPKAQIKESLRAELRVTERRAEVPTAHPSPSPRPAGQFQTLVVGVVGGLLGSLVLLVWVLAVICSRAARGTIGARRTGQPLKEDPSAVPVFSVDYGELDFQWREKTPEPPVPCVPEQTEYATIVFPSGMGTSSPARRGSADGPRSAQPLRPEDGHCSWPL

Binder | Kd [4] | koff [4] | kon [4] | other results
10B11 (mouse monoclonal antibody) (antibody, V domains shown, Mouse hybridoma antibody) VH: DVKLVESGGGLVKPGGSLKVSCAASGFTFSSYTMSWVRQTPEKRLEWVAVISSGGNSTYYPDSVKGRFTISRDNAKNTLYLQMSSLKSEDTAMYYCTREHYGSSHFAYWGQGTLVTVSA VL: not shown |  |  |  | binding result [1]: binds
10B11 mouse:human chimeric antibody (antibody, human IgG1, V domains shown, also called chimeric 10B11) VH: DVKLVESGGGLVKPGGSLKVSCAASGFTFSSYTMSWVRQTPEKRLEWVAVISSGGNSTYYPDSVKGRFTISRDNAKNTLYLQMSSLKSEDTAMYYCTREHYGSSHFAYWGQGTLVTVSA VL: not shown |  |  |  | binding result [2]: binds
APE2058 (antibody, human IgG1, V domains shown, expressed from HEK 293 cells as human IgG1; also called anti-PD-1) VH: EVQLLESGGGLVQPGGSLRLSCAASGFTFSSYDMSWVRQAPGKGLEWVSTISGGGSYTYYQDSVKGRFTISRDNSKNTLYLQMNSLRAEDTAVYYCASPYYAMDYWGQGTTVTVSS VL: DIQLTQSPSFLSAYVGDRVTITCKASQDVGTAVAWYQQKPGKAPKLLIYWASTLHTGVPSRFSGSGSGTEFTLTISSLQPEDFATYYCQHYSSYPWTFGQGTKLEIK | 2 nM | 0.00064 s⁻¹ | 300000 M⁻¹ s⁻¹ | EC50, multiple human CD4+ T-cell MLR assays [3]: 0.02 µg/mL; Kd [5]: 0.2 nM
APE1923 (antibody, human IgG1, V domains shown, expressed from HEK 293 cells as human IgG1) VH: EVQLLESGGGLVQPGGSLRLSCAASGFTFSSYTMSWVRQAPGKGLEWVSVISSGGNSAYYPDSVQGRFTISRDNSKNTLYLQMNSLRAEDTAVYYCAKEHYGTSHFAYWGQGTLVTVSS VL: EIVLTQSPATLSLSPGERATLSCRASESVDNFGISFMSWYQQKPGQAPRLLIYAASNPGSGIPARFSGSGSGTDFTLTISSLEPEDFAVYYCQQSKEVPYTFGQGTKLEIK | 9 nM | 0.0017 s⁻¹ | 190000 M⁻¹ s⁻¹ | Kd [5]: 1 nM
APE1963 (antibody, human IgG1, V domains shown, expressed from HEK 293 cells as human IgG1) VH: EVQLLESGGGLVQPGGSLRLSCAASGFTFSSYTMSWVRQAPGKGLEWVSVISSGGNSAYYPDSVQGRFTISRDNSKNTLYLQMNSLRAEDTAVYYCAKEYYGSSHFAYWGQGTLVTVSS VL: EIVLTQSPATLSLSPGERATLSCRASESVDNFGISFMSWYQQKPGQAPRLLIYAASNPGSGIPARFSGSGSGTDFTLTISSLEPEDFAVYYCQQSKEVPYTFGQGTKLEIK | 17 nM | 0.001 s⁻¹ | 58000 M⁻¹ s⁻¹ | 
APE1924 (antibody, human IgG1, V domains shown, expressed from HEK 293 cells as human IgG1) VH: EVQLLESGGGLVQPGGSLRLSCAASGFTFSSYTMSWVRQAPGKGLEWVSVISSGGNYAYYPDSVQGRFTISRDNSKNTLYLQMNSLRAEDTAVYYCAKEHYGTSHFAYWGQGTLVTVSS VL: EIVLTQSPATLSLSPGERATLSCRASESVDNFGISFMSWYQQKPGQAPRLLIYAASNPGSGIPARFSGSGSGTDFTLTISSLEPEDFAVYYCQQSKEVPYTFGQGTKLEIK | 10 nM | 0.0018 s⁻¹ | 180000 M⁻¹ s⁻¹ | Kd [5]: ~1 nM
APE1950 (antibody, human IgG1, V domains shown, expressed from HEK 293 cells as human IgG1) VH: EVQLLESGGGLVQPGGSLRLSCAASGFTFSSYTMSWVRQAPGKGLEWVSVISSGGDSTYYPDSVQGRFTISRDNSKNTLYLQMNSLRAEDTAVYYCAKEHYGTSHFAYWGQGTLVTVSS VL: EIVLTQSPATLSLSPGERATLSCRASESVDNFGISFMSWYQQKPGQAPRLLIYAASNPGSGIPARFSGSGSGTDFTLTISSLEPEDFAVYYCQQSKEVPYTFGQGTKLEIK | 17 nM | 0.0025 s⁻¹ | 150000 M⁻¹ s⁻¹ | 
APE1922 (antibody, human IgG1, V domains shown, expressed from HEK 293 cells as human IgG1) VH: EVQLLESGGGLVQPGGSLRLSCAASGFTFSSYTMSWVRQAPGKGLEWVSVISSGGDSAYYPDSVQGRFTISRDNSKNTLYLQMNSLRAEDTAVYYCAKEHYGTSHFAYWGQGTLVTVSS VL: EIVLTQSPATLSLSPGERATLSCRASESVDNFGISFMSWYQQKPGQAPRLLIYAASNPGSGIPARFSGSGSGTDFTLTISSLEPEDFAVYYCQQSKEVPYTFGQGTKLEIK | 15 nM | 0.0018 s⁻¹ | 130000 M⁻¹ s⁻¹ | 
9A2 (mouse monoclonal antibody) (antibody, V domains shown, Mouse hybridoma antibody) VH: DVKLVESGGGLVKPGGSLKLSCAASGFTFSSYTLSWVRQTPGKRLEWVAVISSGGDYAYYPDSVQGRFTISRDNAKNTLYLQMNSLKSEDTAMYYCSRDHYGTSHFAYWGQGTLVTVSA VL: not shown |  |  |  | binding result [1]: binds
9A2 mouse:human chimeric antibody (antibody, human IgG1, V domains shown, also called chimeric 9A2) VH: DVKLVESGGGLVKPGGSLKLSCAASGFTFSSYTLSWVRQTPGKRLEWVAVISSGGDYAYYPDSVQGRFTISRDNAKNTLYLQMNSLKSEDTAMYYCSRDHYGTSHFAYWGQGTLVTVSA VL: not shown |  |  |  | binding result [2]: binds
6E9 (mouse monoclonal antibody) (antibody, V domains shown, Mouse hybridoma antibody) VH: EVMLVESGGGLVKPGGSLKLSCAASGFTFSSYDMSWVRQTPEKRLEWVATISGGGSYTYYQDSVKGRFTISRDNAKNTLYLQMSSLRSEDTAMYYCASPYYAMDYWGQGTSVTVSS VL: DIVMTQSHKFMSTSVGDRVSITCKASQDVGTAVAWYQQKPGQSPKLLIYWASTRHTGVPDRFTGSGSGTDFTLTISNVQSEDLADYFCQHYSSYPWTFGGGTKLEIKR |  |  |  | binding result [1]: binds
6E9 mouse:human chimeric antibody (antibody, human IgG1, V domains shown, also called chimeric 6E9) VH: EVMLVESGGGLVKPGGSLKLSCAASGFTFSSYDMSWVRQTPEKRLEWVATISGGGSYTYYQDSVKGRFTISRDNAKNTLYLQMSSLRSEDTAMYYCASPYYAMDYWGQGTSVTVSS VL: DIVMTQSHKFMSTSVGDRVSITCKASQDVGTAVAWYQQKPGQSPKLLIYWASTRHTGVPDRFTGSGSGTDFTLTISNVQSEDLADYFCQHYSSYPWTFGGGTKLEIKR |  |  |  | binding result [2]: binds
